Measurements as given in patent US20160243230A1.

Molecular target: Vκ4Len(1-22) peptide, P06312
Assay: EuLISA, peptide dried on the plate, 11-1F4 titrated from 100 nM

B1: murine 11-1F4 monoclonal antibody (antibody)
chain 1: QVQLKESGPGLVAPSQSLSITCTVSGFSLSSYGVSWVRQPPGKGLEWLGVIWGDGSTNYHPNLMSRLSISKDISKSQVLFKLNSLQTDDTATYYCVTLDYWGQGTSVTVSS
chain 2: DVVMTQTPLSLPVSLGDQASISCRSSQSLVHRNGNTYLHWYLQKPGQSPKLLIYKVSNRFSGVPDRFSGSGSGTDFTLKISRVEAEDLGLYFCFQTTYVPNTFGGGTKLEIK
  EC50: 0.5 nM
